Measured values from patent publication US20130184211A1 (NEW YORK UNIVERSITY, published 2013).

Experiments:
[1] = target: T1, 1:1 binary complex of the ectodomains of FGFR1c and Klotho (human; murine, UniProt O35082 35-982); assay: SPR competition; competitor FGF23^28-251 immobilized, fixed FGFR1c-Klotho complex
T1 construct: range 35-982; also called FGFR1c-Klotho complex; binary FGFR1c-Klotho complex; not shown: C-terminal FLAG tag
T1 sequence 1: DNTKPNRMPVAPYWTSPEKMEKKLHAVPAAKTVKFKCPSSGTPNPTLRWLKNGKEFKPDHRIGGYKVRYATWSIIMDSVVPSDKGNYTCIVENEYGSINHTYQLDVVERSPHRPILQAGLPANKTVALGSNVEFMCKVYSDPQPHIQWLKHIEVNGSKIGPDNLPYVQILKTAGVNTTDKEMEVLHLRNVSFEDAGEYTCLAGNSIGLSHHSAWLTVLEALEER
T1 sequence 2: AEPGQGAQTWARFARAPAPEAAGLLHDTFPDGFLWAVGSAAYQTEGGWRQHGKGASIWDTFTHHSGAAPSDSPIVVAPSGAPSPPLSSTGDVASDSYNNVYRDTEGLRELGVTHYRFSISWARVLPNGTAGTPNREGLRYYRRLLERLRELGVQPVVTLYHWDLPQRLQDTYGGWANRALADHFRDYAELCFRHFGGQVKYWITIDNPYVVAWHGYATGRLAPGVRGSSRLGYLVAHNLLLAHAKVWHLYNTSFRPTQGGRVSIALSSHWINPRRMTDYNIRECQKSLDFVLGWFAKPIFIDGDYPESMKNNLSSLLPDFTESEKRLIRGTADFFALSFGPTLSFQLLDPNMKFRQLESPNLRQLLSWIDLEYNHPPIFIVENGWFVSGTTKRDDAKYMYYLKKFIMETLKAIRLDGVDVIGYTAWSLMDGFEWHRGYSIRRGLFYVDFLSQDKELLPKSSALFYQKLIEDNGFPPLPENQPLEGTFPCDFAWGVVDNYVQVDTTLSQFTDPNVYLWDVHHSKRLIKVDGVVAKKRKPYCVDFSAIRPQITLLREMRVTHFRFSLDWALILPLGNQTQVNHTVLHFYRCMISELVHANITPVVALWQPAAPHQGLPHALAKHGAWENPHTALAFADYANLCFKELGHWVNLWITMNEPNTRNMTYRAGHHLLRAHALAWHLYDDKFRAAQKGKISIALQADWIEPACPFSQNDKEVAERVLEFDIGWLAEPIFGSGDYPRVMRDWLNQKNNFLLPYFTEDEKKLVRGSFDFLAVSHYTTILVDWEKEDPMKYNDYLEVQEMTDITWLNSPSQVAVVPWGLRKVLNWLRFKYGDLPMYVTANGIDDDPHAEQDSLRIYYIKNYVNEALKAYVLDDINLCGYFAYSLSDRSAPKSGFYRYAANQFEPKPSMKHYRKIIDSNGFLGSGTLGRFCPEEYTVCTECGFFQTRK
Protocol: (§1) Increasing concentrations of FGF23²⁸⁻²⁵¹ (0-50 nM) were mixed with a fixed concentration of 1:1 complex of the ectodomains of FGFR1c and Klotho (15 nM and 20 nM, respectively) in HBS-EP buffer, and the mixtures were passed over the FGF23 chip. In the other—reverse—assay, FGF23¹⁸⁰⁻²⁵¹ was immobilized on a chip (˜48.4 fmole/mm² of flow channel). Increasing concentrations of FGF23²⁸⁻²⁵¹ (0-50 nM) were mixed with a fixed concentration of 1:1 complex of the ectodomains of FGFR1c and Klotho (20 nM) in HBS-EP buffer, and the mixtures were passed over the chip. As a control, competition of FGF23 C-terminal tail peptide in solution with immobilized FGF23 C-terminal tail peptide for binding to the binary FGFR1c-Klotho complex was studied. Increasing concentrations of FGF23¹⁸⁰⁻²⁵¹ (0-400 nM) were mixed with a fixed concentration of 1:1 complex of the ectodomains of FGFR1c and Klotho (20 nM) in HBS-EP buffer, and the mixtures were passed over the FGF23¹⁸⁰⁻²⁵¹ chip.
To fully nail down that the C-terminal tail of FGF23 mediates FGF23 binding to the binary FGFR1c-Klotho complex, a fixed concentration of FGFR1c-Klotho was mixed with increasing concentrations of FGF23¹⁸⁰⁻²⁵¹, and the mixtures were passed over the FGF23 chip. Mixtures of FGF23²⁸⁻²⁵¹ with FGFR1c-Klotho were used as a control. […] Similar results were obtained using the “reverse” SPR assay format, where FGF23¹⁸⁰⁻²⁵¹ was immobilized on a chip and mixtures of a fixed concentration of FGFR1c-Klotho complex with increasing concentrations of FGF23²⁸⁻²⁵¹ were passed over the chip (FIG. 3E). Mixtures of FGF23¹⁸⁰⁻²⁵¹ with FGFR1c-Klotho were used as a control (FIG. 3F). To verify the specificity of the interaction between the FGF23 C-terminal tail and the FGFR1c-Klotho complex, the C-terminal tail peptide of FGF21 and FGFR1c-Klotho were mixed at molar ratios of 6:1 and 10:1, and the mixtures were injected over a FGF23 chip.

[2] = target: T1, 1:1 binary complex of the ectodomains …; assay: SPR competition dose-response: FGF23^180-251 mixed with a fixed concentration of FGFR1c-Klotho, immobilized FGF23^28-251 as competitor; averaged data of two to three experiments
Protocol: as §1
To fully nail down that the C-terminal tail of FGF23 mediates FGF23 binding to the binary FGFR1c-Klotho complex, a fixed concentration of FGFR1c-Klotho was mixed with increasing concentrations of FGF23¹⁸⁰⁻²⁵¹, and the mixtures were passed over the FGF23 chip. Mixtures of FGF23²⁸⁻²⁵¹ with FGFR1c-Klotho were used as a control. […]

Binder	molar excess over FGFR1c-Klotho complex at half-maximum inhibition [1] [fold molar excess]	IC50 (read off the curve) [2] [nM]
N-terminally hexahistidine-tagged 72-amino acid C-terminal tail of human FGF23 (S180 to I251), FGF23^180-251 (Expressed in E. coli; also called FGF23 C-terminal tail peptide; C-terminal tail of FGF23; not shown: N-terminal hexahistidine tag (six His)) peptide: SAEDDSERDPLNVLKPRARMTPAPASCSQELPSAEDNSPMASDPLGVVRGGRVNTHAGGTGPEGCRPFAKFI	3.3	~50
SAEDDSERDPLNVLKPRARMTPAPAS (Made by solid phase synthesis (GenScript)) [FGF23 C-terminal region peptide (S180 to S205), FGF23^180-205]	5.7	–
